Measurements: article PMC5365139

Tests used:
Test in all cases: fluorescence anisotropy
InrS = target: T1, InrS (Synechocystis PCC 6803, UniProt Q55554)
T1 sequence: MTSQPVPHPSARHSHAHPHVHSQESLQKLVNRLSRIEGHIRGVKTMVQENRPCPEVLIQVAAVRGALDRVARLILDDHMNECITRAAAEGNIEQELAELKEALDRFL

InrS H21E = target: T2, InrS H21E (Synechocystis PCC 6803, UniProt Q55554 61-167, H81E)
T2 sequence: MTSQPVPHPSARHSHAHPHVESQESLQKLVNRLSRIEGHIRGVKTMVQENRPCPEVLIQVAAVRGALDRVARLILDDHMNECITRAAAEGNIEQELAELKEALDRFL

InrS H21L = target: T3, InrS H21L (Synechocystis PCC 6803, UniProt Q55554 61-167, H81L)
T3 sequence: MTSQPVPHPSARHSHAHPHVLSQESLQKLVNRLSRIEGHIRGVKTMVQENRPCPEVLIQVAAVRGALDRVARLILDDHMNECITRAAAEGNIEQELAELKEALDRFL

Measured: binding result

B1: nikProFA (dsDNA)
DNA 1: AAATCCATATCCCCCTTCCCCCCAGAGGGTATT
DNA 2: AATACCCTCTGGGGGGAAGGGGGATATGGATTT
binds: all assays above
